Data from the supplement of paper PMC9170038.

Assays:
[1] = system: MS2 coat protein; assay: apparent KD of MS2 coat protein; higher = weaker reporter binding; settings: Eterna round: R107
Experimental: (§1)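 RNA-MaP round R107: designed RNA switches with theophylline, tryptophan, arginine or FMN aptamers are transcribed on-chip within common flanks. They are titrated with SNAP-549-labelled MS2 coat protein in RNA-MaP buffer (100 mM Tris pH 7.5, 80 mM KCl, 4 mM MgCl2), without ligand or with the indicated ligand. Median apparent KD per design.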

[2] = system: K4 kissing-loop RNA reporter; assay: apparent KD of K4 kissing-loop reporter; higher = weaker reporter binding; settings: Eterna round: R107;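 note: bound reporter read as fluorescence of individual clusters on recovered sequencing chips by microscopy, with normalized cluster intensities fitted with a binding model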
Experimental: as §1, with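 “a labelled K4 kissing-loop RNA reporter” for “SNAP-549-labelled MS2 coat protein”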

[3] = input ligand: theophylline 20 uM
[4] = input ligand: theophylline 2 mM
[5] = input ligand: tryptophan 2.4 mM

Sequence | apparent KD of MS2 coat protein ([1]; input ligand: arginine 13.2 mM) | apparent KD of MS2 coat protein ([1]; input ligand: none) | apparent KD of MS2 coat protein [1, 3] | apparent KD of MS2 coat protein [1, 4] | apparent KD of MS2 coat protein [1, 5] | apparent KD of K4 kissing-loop reporter ([2]; input ligand: FMN 200 uM) | apparent KD of K4 kissing-loop reporter ([2]; input ligand: arginine 13.2 mM) | apparent KD of K4 kissing-loop reporter ([2]; input ligand: none) | apparent KD of K4 kissing-loop reporter [2, 3] | apparent KD of K4 kissing-loop reporter [2, 5]
AAAAGAGGUGGAAGGAGCGGGAGACAUGAGGAUCACCCAUGUGAUGUGACGAAAGGGUCAGCCCAGGUAGGUCGCCAUGUCGAAA [yuyymullin] | 54.6 nM | 62.9 nM | 76.2 nM | 134 nM | 27.3 nM | – | – | – | – | –
AAAAUCCUACCUGAGGAUCACCCGGGUGAAGGAGCGCCCGAAAGGGCAGGUAGGUCGCACCUGAGGAUCACCCUGGUAACCUAAA [ArgEX 12 #DoubleMS2 #OpenEnded #AlternativeMS2] | 41.7 nM | 179 nM | 187 nM | 454 nM | 159 nM | – | – | – | – | –
AAAAUCCUACCUGAGGAUCACCCUGGUGAAGGAGCGCCCGAAAGGGCAGGUAGGUCGCACCUGAGGAUCACCCGGGUAACCUAAA [ArgEX 14 #DoubleMS2 #OpenEnded #AlternativeMS2] | 78.7 nM | 170 nM | 139 nM | 200 nM | 151 nM | – | – | – | – | –
AAACGUUGCUCAGAUACCAGACAUGAGGAUCACCCAUGUACCAAGGUAACCGAAAGGCAUGUCCCUUGGCAGCUGAGCAACGAAA [MAT - Exclusion Theophlline B - Mod of Eli - D16] | 12.4 nM | – | 21.4 nM | – | 12.5 nM | – | – | – | – | –
AAACGUUGCUGCGAUACCAGACAUGAGGAUCACCCAUGUACCAAGGUACGAAAAUAACAUGUCCCUUGGCAGCGCAGCAACGAAA [MAT - Exclusion Theophlline B - Mod of Eli - D6] | 15.7 nM | – | 29.7 nM | – | 14.5 nM | – | – | – | – | –
AAAGCUACGUAAAAUAAAACUACAUGUGAAGGAGCGCGCGAAAGCGCAGGUAGGUCGCACAUGAGGAUCACCCAUGUCGUAGCAA [MAT - Exclusion Arginine A - Mod of Eli - D5] | 43.9 nM | 63.4 nM | 101 nM | 78.2 nM | 52.2 nM | – | – | – | – | –
AAAUAAAUAACUGAUACCAGUCGGACAACAUGAGGAUCACCCAUGUUCACCCAUGUUGAGGACCCUUGGCAGCAGAAAUAUAAAA [test (nupak+vienna] | 41.5 nM | – | 116 nM | – | 243 nM | – | – | – | – | –
AAAUAAAUAACUGAUACCAGUGUACUGACAUGAGGAUCACCCAUGUUGGGUUUGGUUGUACACCCUUGGCAGCAGAAAUAUAAAA [test (nupak] | 15.4 nM | – | 20.6 nM | – | 15.1 nM | – | – | – | – | –
AAAUAAAUACAUGAGGAUCACCCAUGUGAAGGAGCGGCCGUUAGGCCAGGUAGGUCGCGCAUGAAUAACUCCGUGCAAAAGCACA [MAT - Exclusion Arginine A - Mod of Eli - D18] | 9.62 nM | 11.2 nM | 16.9 nM | 13.3 nM | 12.7 nM | – | – | – | – | –
AAAUGAGGAUCACCCAUGUAACAACGGGAAGGAGCGCCAAACAAGGCAGGUAGGUCGCCCACAUGAGGAUCACCCAUGUGUUGGG [Exclusion Arginine A GF 28] | 89 nM | 137 nM | 105 nM | 166 nM | 177 nM | – | – | – | – | –
AAAUGUGUAAAAGCUUUAACACCCUGAGAAGGAGCGCAAUAAAUUGCAGGUAGGUCGCUCAGACAUGAGGAUCACCCAUGUAACC [Atrabeor] | 45.7 nM | 39.6 nM | 56.9 nM | 59.7 nM | 40 nM | – | – | – | – | –
AACAGUUGGUCGGCCGCCACUACAUGAGGAUCACCCAUGUAGCGCGUUCUGCUCCAGGGCUCAUCUAGGACCGGGACACGAGUGU [Raa] | 12.2 nM | – | 21.4 nM | 14.5 nM | – | – | – | – | – | –
AACAUGAGGAUCACCCAUGUCCCAUGUGAACGAGGACCGGUACGGCCGCCACUCGAAUAAGGCGGCACAUGAGGAUCACCCACAU [AstrosSSTry#1] | 101 nM | – | 223 nM | 206 nM | – | – | – | – | – | –
UGUGGAGAAUAUGAUACCAGCAGUGAGAGAGAGGAAGUAUAGUGAUGUUAUAUGAGAGAAUGCCCUUGGCAGCAUAUGUAGAAGG [SSTheophylB.F] | – | – | – | – | – | 133 nM | 154 nM | 107 nM | 93.6 nM | 128 nM
UGUGUUGUUUUGAUGUUUGGUGUUGCAUGGCAGGAUAUCGUAGAGGCGAGAAGGGCUUGUGAGCGGUAUGAGUGAUGUUUGUAGG [bbgbmullin] | – | – | – | – | – | 433 nM | 270 nM | 406 nM | 400 nM | 299 nM
UGUGUUGUUUUGAUGUUUGGUGUUUGUUGGCAGGAUAUCGUAGAGGCGAGAAGGGCUUGGGAGCGGUAUGAGUGAUGUUUGUAGG [deedwrmullin] | – | – | – | – | – | 373 nM | 186 nM | 364 nM | 302 nM | 245 nM
UGUGUUUACCUGACUCAGUGAUGUUGAGAAGGAGCGUGCGAAAGCACAGGUAGGUCGCUCAACCUAAAAUUCAGGUGAGCACUAA [#SwitchBubble 11 #K4Early] | – | – | – | – | – | 366 nM | 202 nM | 267 nM | 263 nM | 213 nM
UUACCAAGUGAUGUUUGGAAAUAUCCUAGGCAGGAUAUGCGGAAACGCAGAAGGGCCACCUUCUAGUGAAGGAAACUUCGCUAUU [Ex FMN A 3] | – | – | – | – | – | 288 nM | 199 nM | 272 nM | 246 nM | 263 nM
UUAGAUCAAAGAUCAGUCUUAUUGAGAGAACGAGGACCGGUACGGCCGCCACUCGAGUGAUGUUCGAGAACUCUCUUGACAAAUU [AK1 EXC Tryptophan A] | – | – | – | – | – | 158 nM | 150 nM | 169 nM | 133 nM | 258 nM
UUAGGCUCUCUUCUCAUUCGCUUAACCGAUACCAGAGUAAGCCCUCUCCCUUGGCAGCGGAGUGAUGUUCCGAGUGUUGAUAUUG [theeternabot_exclusion_KL_Theo_A_44] | – | – | – | – | – | 93.1 nM | 113 nM | 113 nM | 130 nM | 107 nM
UUAGUCUAGAGAGGAUAUCAGUGAUGUUGAUAUCAAGAUCUAAGAUAGAAUUCUAUCUUAGAUCAAUGAGAAGGCUCUAGACAUU [AK1.1 Exc FMN B] | – | – | – | – | – | 993 nM | 144 nM | 151 nM | 128 nM | 147 nM
